A protein production outcome set (Wang et al. 2014)

Test: label from the status in PepcDB records

Sequence	protein production
MKIGFLGFGKSNRSLLKYLLNHQEAKFFVSEAKTLDGETKKFLEEHSVEYEEGGHTEKLLDCDVVYVSPGIKPDTSMIELLSSRGVKLSTELQFFLDNVDPKKVVGITGTDGKSTATALMYHVLSGRGFKTFLGGNFGTPAVEALEGEYDYYVLEMSSFQLFWSERPYLSNFLVLNISEDHLDWHSSFKEYVDSKLKPAFLQTEGDLFVYNKHIERLRNLEGVRSRKIPFWTDENFATEKELIVRGKKYTLPGNYPYQMRENILAVSVLYMEMFNELESFLELLRDFKPLPHRMEYLGQIDGRHFYNDSKATSTHAVLGALSNFDKVVLIMCGIGKKENYSLFVEKASPKLKHLIMFGEISKELAPFVGKIPHSIVENMEEAFEKAMEVSEKGDVILLSPGGASFDMYENYAKRGEHFREIFKRHGGDEV	failed
MKIIAFGASTSSTSINKALATFTANLVDGAQVQVLNINDYSVPMFSEDLEKEIGQAEGAQAFLRDLAQADAFVISFAEHNGHYPAAYKNLFDWATRINRALFGDKPAVYLSTSPGPGGAKSVLAAATASAPFFGGNVKASVSVPSFYDNFDLEQGVVTKPEIVAELKAAVAKLSA	failed
MKIIENYKGLPKSIYFLFLVQVINRLGDFVFPFLSLLLTQKLKFSMATTGTIVMIASVVGVPASFIGGKIADKSSRKLTYILGQSFAAIVILICGFINIPNLTVALLIASSFFNGFVRPTISAMVADLLPASKRQMGSSLLYLGINFGVAVGPIIAGFLFNNYLSLLFIIDALTSFIAVIIVLILIPDTKAVKHVGEDRIEEKEEKGNLLQILLKRPFVICFFGVDMIYSLAYRQCSFSMPIMMNKVFGYSGSSKYGFLMSVNALTVVALTIFVMHVTKRFRTLTNMAFSGLFYAVGFGMISIIGNSYLLFIISTVIWTMGEILGATNFGVYLANNSPRNCRARFGAVGELISSIGGAIGIFGAGKLIESYGINMIWRVIFIIVLLGAGLMLTLQYFQTKRVEQKIAHEI	failed
MKIIIIGCGKVGAYVAKQLLDSHHQVTIIERDQKRFEQVLQIFSQAEVLHGDGTSPILLEKCSVETANAVAYLTGKDEINLVGSTVAKFNYAVDRVVARVNNPKNEWLFNADMGVDSRVSQASLLASVIINEVNIESTATLLKLNDDENAIVEFVLSKGASVHGKTVKTINFPSDVVLISVHRQGQNIIPKGETVLLEGDHILAYTNSQNQEKLAQLFR	failed
MKIKAISIDIDGTITYPNRMIHEKALEAIRRAESLGIPIMLVTGNTVQFAEAASILIGTSGPVVAEDGGAISYKKKRIFLASMDEEWILWNEIRKRFPNARTSYTMPDRRAGLVIMRETINVETVREIINELNLNLVAVDSGFAIHVKKPWINKGSGIEKASEFLGIKPKEVAHVGDGENDLDAFKVVGYKVAVAQAPKILKENADYVTKKEYGEGGAEAIYHILEKFGYL	not failed
MKIKANGNEVQIEREMTIFEMLDALNVSMKEYVTVQLNGQIIPRSEYDKVTVKDGDEVEFLYFMGGGLL	failed
MKIKGTEKVPILIFLGALAIGIAFLPPENSLTYDGALYINIARSLTKSVTSFTYQGIYMMYRPPLYPYTLSIFFRVFSSNHLLIARLVSVFSFALTSVLVYLLTLEMFRDSVKGIIASLFYIFNPLAFTMAGRELVHSEFTFFYTLAIYLLYTGKVRKSNTRIYLSFIAAGLAILTRYTGLSIVLVFLTYLWLTEDWNWVRRREYLIGFALLFLTLLPWLYMGHLYYGGFFRPFKIASKVVTLDRPVSAFDFIKMVIGDMGFLLPALAVLGFFRVKKDENGWLILSWLVMGGGGILTVTHKESRFITFLSPVIAILASEGIYLLSNLTPRIRRNNIVAVILALLLLIPIGMKADNLRDRWSIVGVYDSNVVRYVSEHYDGKKILVSPYLYTIAGYYYPNAEIDMILNRKEIVEKIAKGYYDVIIHKDPNVYLNIEESGNYVLVKEFHGGRFKVYINRRSLAK	failed
MKILILGGTRFLGRAFVDEALQRGHEVTLFNRGTNKEVFPEVEQLIGDRNNDVSSLKNRKWDVVIDTCGFSPHHIRNVGEVLNDNIEHYVFISSLSVYKDWILHDIKEDYILQPEPTDDQIKAVENGEVSPYEYYGALKVLCEKEAEKYWPGRVLHVRAGLLSGMFDYTDRLPYWIQRVAKGGKVLVPGRKDRPVQIVDIKDVANWGLNMAENKNAGTFNVTGPNYDLTMEELLNTCKKVMNSDAEFVWVEESFMNEHNVQPWTEMPLWLPEIFSLEGETKPWKGGFTISIENAVKEGLTFRRIEETVTDVYEWMKSTDEWELKAGISGEREKELLERWYQ	failed
MKILLFICGEGLGHTGRCLALGKEFLAAGHEVNFGAYGYSKGLVQKTGYSAYEIPSEIKLAGEAGTFDIRKSIKETLNNLSPSGFRKILRLIEKLDPDVVLSDGYYTGILAAQKRKVPVYFIGHQFNMEEFFWKKGLFAGIAGIFVKRFYNYVFSSVDGIIVPDYPLPYSVNRKNFTISRAVNDNIFFSGPLIRCRYQEAGEKAFKRPNVLSTIGAFGYRAAVFRNVLEAAKLDPSIYYTFISGPEIDPEQFSKVPENVEFTGFTENPFPYYKGSDLVITAGGHGTIMESLAFGLPILSFPDEKHAEQENNASVLEEAGYGKRMSYLTPPEVILACIREIFEDENYSKKTRRLMELAEVLDGPAAVRKFLEEKHRGLEHHHHHH	failed
MKILRRTITGAATGLLLALPGVALAGTTLRVASEEAFATPAKVAAQSALEHVEKTLPDATGGEVSVQLYPGGALGSEKELIKALADGTVDAMVLSPGNAAGIVPEVQLFSASYLFESYDHARAVIKDDAFFEALAQIIAEKQAGFQLAGIGLTGTRNYYSRSRAVETIEDLSGVKMRVMSSPTEFKVWSELGTLPTTIPAPEIYTSLQTGVVDAAESSLPAISGSKYYEVAPYISLTQHQFNLHLFLVSDIAMSRLSEGQQAAVLQAFREAGHIEIDEAIRLSDEVLAFLRERPGVTVTEVDTAPFAQKLRAVQDEVATGLGVEPLLEIIRSHGTQG	failed
MKILSFAVLAAICLPMMPITTFAAETSATNALSQSQLFSRGDEYANVKISPTGKYLSAITSVEGKNVLLVLDAQTKKLLNAIRFPSNAQVGTYEWASSERIVLAKEYLKGWSDVPQYYGELMAVNADGSRPAYLFGFNSGEQQTGSNIKKNTAIKATAFILDPLPDDERYMLVNAIPWNNESSLNLELKQDVYRVDLFSGVRKRITGSPIGQARFMTDHEGEVRFVTGEDGQNVTKVFYRKDGDWVNTDKLNLGLSDFTPISFADNKNTIYAAGRVGTETLGVYRINLETGEKTEIIQDEVVDPSNFWINGTNKQLYAVEFENGYPSYAFVDNNDNHAKLLKDLIAALPGHQVQIVSETRNGEQLVVIAFNDRNPGDYYLFDTKKLKLEYLAAARKWLDPEQMAEVKPISFTNRDGQKIHGYLTLPYGKEAKNLPLVVNPHGGPHGIRDWWGFDPQNQLLAQNGMAVLQVNFRGSGGYGERFEQAGYQKWGSDIQHDIIDATQYVIGQGFVDKERICIAGGSFGGYSALQSAVLAPDMFKCAVGFAGVYDLELMFDEGDVARTRSGTSYLKDVLGQDKATLKAMSPSENVAKLKANLLLVHGGEDERAPIEQLESLEKALKNHNYPYQKLVMDNEGHGFYNDTHRAKYYDQMLSFLKTNLKL	failed
MKINKLLFGMLLLLLASCGSSRKVEKQSEQVAVQEINLTPEQQRKYDYFFLEASRLKVKKEYTAAFDLLQHCLAINPTGSAALYEIAQYYLFLKQAPQGQEALEKAVAYAPDNYWYSQALAGLYQQQDQKEKAIGILEKMATRFPAKQDPLFNLLDLYNQKEDYGKVISTLNRIEEKTGKNEQITMEKFRIYLQMKDDKKAFEEIESLVNEYPMDYRYQVILGDVYMQNGKKQEAYDTYKKVLAAEPDNPMALFSLASYYEQTGQKELFEQQMDTLLLNRKVPSDTKVNVMRQFIVQSEQEGKDSTQVIGLFDRMMQMDMDDVQIPMLYAQYLLSKGMEAQSIPVLEQVVQIDPTNKAARMTLLGSAIRKNDYEQVIKICEPGIEATPDALEFYFYLVIAYNQAEHWDDVLEVSRKALEHVTPESDKQMVSDFYTIIGDVYHTKKLMKEAYAAYDSALVYNPSNIGALNNYAYYLSVERRDLDKAEEMSYKTVKAAPNNATYLDTYAWILFEKGNYAEARIYIDDAIKNTKPEEESSVVFEHCGDIYFMTGDVEGALKYWKKALELGTESKTLKQKIEKKKYIAE	failed
MKINMHILGLLVVVGLFSLQSCDDESYDIEGSNQNYVYINVNRWTSTEYPQNTFVYEVLRTPIGSSLESGPEIVKVGVRSTKVASKDITVTLDIDNCASIGEFSSFPDGVKVTLDKKELVIPAGSMLSSDSVTIEIEDGKWSEFVNTSYLLPLKVTSVSNAALSETHSSAYLAVSTSFTNCVPGATSVEGTLISDRSAWTATNNGVDVGTTLFDGNTRTYPSQDASSTVIVNLNGVYQNITGIRLQYYSRNYSLSSAAVYTSETGGEDYEYQGNVTFSRATPQYIRFYGAVSARYVKLELLPYSSGYGIVLSEFDMYQNE	failed
MKIQDYTKQMVDEKSFIDMAYTLLNDKGETMNLYDIIDEFRALGDYEYEEIENRVVQFYTDLNTDGRFLNVGENLWGLRDWYSVDDIEEKIAPTIQKFDILDADDEEDQNLKLLGEDEMDDDDDIPAQTDDQEELNDPEDEQVEEEINHSDIVIEEDEDELDEDEEVFEDEEDFND	not failed
MKIRVADEKELPMILQFLTEVKAYMDVVGITQWTKDYPSQGDIQEDITKKRLYLLVHEEMIFSMATFCMEQEQDFVWLKRFATSPNYIAKGYGSLLFHELEKRAVWEGRRKMYAQTNHTNHRMIRFFESKGFTKIHESLQMNRLDFGSFYLYVKELENQSIV	not failed
MKISFSESQKLFAYFSGLIAALSLFIYYVSAQQSEGALILCITFGVIAAGIWFGPIYALAVTLIVLFVLGTLMMFFQTGQTSLFPAEEGLRMLVVWGIALLLFSFISGRIHDITAELRRSMTRLQSEIKSYVAVDRVTGFDNKQRMKLELSEEIKRAERYGNSFVFLLLHMHYFKEFKSLYGEKETDRLFQYVGQQIRTSVRETDKKFRPSDERIGIVLTHTPAEHMPAVLTKLKKQLDTYQLENGKYVSLTFHVCYLPYRNDIQTADQFLEELENEMMMNEL	failed
MKITFISGQEVSLGTSFLLFSKKIVMNELNQPLLAIIKNVAKTKNLSIEEVVFCLKTALEQAYKKHLNFVNVEVNINFDKGIINVEQLFNVVSDENEDYDDFLEIPLQAANKINSSLQLGDVLRKPIPLKNISSDLINKMIAIFNQKISETNFKAVMSEFSSEVGEVIEAKVEDIDTNKEGGLKGYIINLETTKGYISKRELSKGERLEIGKKYLFVIKEIQRQASLWPITLSRSDTRLLQFLLTSNTPEIENGTIVIKKIERSPGVKSKIAVISNDPAVDPVAAILGPKGEKIRGISEEFNGEIIDIVFWNEDKLKFLINAILPAEVIGYNILQDDERDTSIEVVVPANQIANVFGFKGVNIRLISNLTGWNSVDVYSEKDASEANIKFTRLSFEPEGLFGIKKRREKIISNDATDKVFYTSKDNVIDDEIIVDLAKDLMVDNKQKQPEQVAKQVVEKSQLEKQVTPKEKEKVQPKAKVHSNSHSKKPAKPNQIFSITVDASDKNLKKDQVDNNQTNPQTKQTFDSFDDL	failed
MKITLEHWFYNWLFEYRIKDLKPKSFERYESIYRNYIKDTDLGNVKLKYLRVSHIQKYYNRLLDSNKSIPTIRQINTKLKTCLSEAEKQGLIQRNYCTMVNIPLEHHHHHH	not failed
MKIVILGAGRVGSTVAESLASESNDITVVDLVRNRLSLLQERLDLRTVVGSASHPDIMIQAGMEDADMILALTGSDETNLVACKLAASMFNTPTRIARIRTVDYLDHPDIFSRENFCVDFAICPERILTKYIEKLIEFPGALQVLDFASGKVSLVAVKAIRGGPLIGRQLKELRRHVPNLDTRVAAIFRHNHPIIPEGSTIVEEGDEVFFIASSSDIRAVMGELRRMDKSVRRVMIAGGGRIGRRLAEVLQQSHQVRIIERDIKVCESLTQNLHNTLILHGNVTDEELLESENISEMDIFCALTDDEENNIMAALMAKRMGARKVIALINRSMYVDLMQDSGIDIAISPAQVTIGSLLAYVRQGDVAVVHSLRRGAAEALELVAHGDTRSSRVVGRKIEEIKLPRSTTIGAIVRGLPPGDVYRNLSEQEEDSILAQWKQAQVIIAHHDTVIEQNDHVILFVVNKKMVRQVEKLFQVNVGFL	failed
